From paper PMC2428106, “Regulation of intestinal hPepT1 (SLC15A1) activity by phosphodiesterase inhibitors is via inhibition of NHE3 (SLC9A3)” (Biochimica et Biophysica Acta, 2007)

Substrate: CN(CC(=O)O)C(=O)CN
Test: cells, lysate or membranes
Type: cell-based, Homo sapiens

B1: hPepT1 (SLC15A1) (Homo sapiens) (protein)
chain: MGMSKSHSFFGYPLSIFFIVVNEFCERFSYYGMRAILILYFTNFISWDDNLSTAIYHTFVALCYLTPILGALIADSWLGKFKTIVSLSIVYTIGQAVTSVSSINDLTDHNHDGTPDSLPVHVVLSLIGLALIALGTGGIKPCVSAFGGDQFEEGQEKQRNRFFSIFYLAINAGSLLSTIITPMLRVQQCGIHSKQACYPLAFGVPAALMAVALIVFVLGSGMYKKFKPQGNIMGKVAKCIGFAIKNRFRHRSKAFPKREHWLDWAKEKYDERLISQIKMVTRVMFLYIPLPMFWALFDQQGSRWTLQATTMSGKIGALEIQPDQMQTVNAILIVIMVPIFDAVLYPLIAKCGFNFTSLKKMAVGMVLASMAFVVAAIVQVEIDKTLPVFPKGNEVQIKVLNIGNNTMNISLPGEMVTLGPMSQTNAFMTFDVNKLTRINISSPGSPVTAVTDDFKQGQRHTLLVWAPNHYQVVKDGLNQKPEKGENGIRFVNTFNELITITMSGKVYANISSYNASTYQFFPSGIKGFTISSTEIPPQCQPNFNTFYLEFGSAYTYIVQRKNDSCPEVKVFEDISANTVNMALQIPQYFLLTCGEVVFSVTGLEFSYSQAPSNMKSVLQAGWLLTVAVGNIIVLIVAGAGQFSKQWAEYILFAALLLVVCVIFAIMARFYTYINPAEIEAQFDEDEKKNRLEKSNPYFMSGANSQKQM
B1 gave a Km of 1000 ± 200 µM.
